# Data reported in patent US20240294650A1 (Alector, published 2024).
# Numbering of substitutions follows the chain as printed.
# T1: MerTK C-terminal ECD Half-and-half chimera (human)
# T1 construct: tested as culture supernatant; also called MerTK C-term half-and-half chimera; MerTK C-terminal ECD (FN1-FN2-JM) + Axl N-terminal ECD (NT-Ig1-Ig2)
# T1 chain: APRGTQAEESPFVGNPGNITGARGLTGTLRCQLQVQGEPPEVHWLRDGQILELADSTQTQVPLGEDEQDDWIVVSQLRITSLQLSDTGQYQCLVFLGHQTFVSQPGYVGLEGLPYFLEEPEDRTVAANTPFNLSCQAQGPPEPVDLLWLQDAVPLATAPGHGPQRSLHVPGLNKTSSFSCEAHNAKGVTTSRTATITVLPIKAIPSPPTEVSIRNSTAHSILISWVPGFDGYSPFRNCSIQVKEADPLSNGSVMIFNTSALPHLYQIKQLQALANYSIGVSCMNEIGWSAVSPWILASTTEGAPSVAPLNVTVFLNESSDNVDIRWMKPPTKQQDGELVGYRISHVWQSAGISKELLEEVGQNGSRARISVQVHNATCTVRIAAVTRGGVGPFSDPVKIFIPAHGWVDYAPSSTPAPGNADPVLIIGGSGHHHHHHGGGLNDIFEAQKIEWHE
# T2: His tag-conjugated recombinant ProS (human, UniProt P07225 42-676, limits assumed)
# T2 construct: bought; also called Protein S; ProS1 (R&D systems, Cat #9489-PS-100)
# T2 sequence (looked up): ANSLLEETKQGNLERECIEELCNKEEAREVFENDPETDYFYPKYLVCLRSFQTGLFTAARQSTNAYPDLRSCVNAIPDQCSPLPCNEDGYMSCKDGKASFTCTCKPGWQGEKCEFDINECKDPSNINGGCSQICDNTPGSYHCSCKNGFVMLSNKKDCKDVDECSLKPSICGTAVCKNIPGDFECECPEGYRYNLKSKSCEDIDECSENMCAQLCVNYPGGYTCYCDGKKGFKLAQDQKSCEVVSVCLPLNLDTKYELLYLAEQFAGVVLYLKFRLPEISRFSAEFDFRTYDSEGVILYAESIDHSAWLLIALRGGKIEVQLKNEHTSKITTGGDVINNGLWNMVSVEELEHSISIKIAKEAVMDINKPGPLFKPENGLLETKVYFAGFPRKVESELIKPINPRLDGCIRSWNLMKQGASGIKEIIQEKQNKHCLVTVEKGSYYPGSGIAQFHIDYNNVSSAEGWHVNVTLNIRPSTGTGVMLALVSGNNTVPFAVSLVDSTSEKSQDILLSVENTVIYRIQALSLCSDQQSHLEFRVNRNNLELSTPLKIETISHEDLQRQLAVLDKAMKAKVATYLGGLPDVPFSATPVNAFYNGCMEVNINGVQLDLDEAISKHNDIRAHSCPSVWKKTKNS
# T3: recombinant murine MerTK extracellular domain (mouse, UniProt Q60805 19-497)
# T3 construct: also called Mouse MerTK; murine MerTK ECD; not shown: polyHis or TEVS/Thrombin/murine IgG2a-Fc tag
# T3 sequence: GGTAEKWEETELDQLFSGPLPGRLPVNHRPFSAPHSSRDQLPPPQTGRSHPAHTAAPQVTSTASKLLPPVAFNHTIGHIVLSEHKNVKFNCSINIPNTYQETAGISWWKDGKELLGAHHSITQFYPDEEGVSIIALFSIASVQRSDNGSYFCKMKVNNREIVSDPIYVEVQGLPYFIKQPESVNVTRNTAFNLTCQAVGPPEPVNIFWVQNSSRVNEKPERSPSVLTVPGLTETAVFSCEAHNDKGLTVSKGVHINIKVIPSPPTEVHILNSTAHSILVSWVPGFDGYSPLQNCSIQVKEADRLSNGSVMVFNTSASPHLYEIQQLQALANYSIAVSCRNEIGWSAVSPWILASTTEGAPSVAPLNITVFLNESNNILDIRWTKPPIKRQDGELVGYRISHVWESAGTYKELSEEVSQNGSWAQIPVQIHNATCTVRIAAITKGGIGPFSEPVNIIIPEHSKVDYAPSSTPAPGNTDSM
# B1: MTK-212 (antibody, human IgG1, V domains shown)
# VH: QVQLQQSGPELVKPGASVKISCKASGYAFSSSWVNWVKQRPGKGLEWIGRIYPGDGDSNYNGNFKGKATLTADKSSNTAYLQLSSLTSEDSAVYFCARKSHFIYYTLDYWGQGTPVTVSS
# VL: DIVMTQSHKFKSTSVGDRVSIACKASQDVGTSVAWYQQKPGKSPKLLIYWASSRHTGVPDRFTGSGSGTDFTLTISNVQSEDLTDYFCQQYSTYPYTFGGGTKLEIK
# B2: MTK-223 (antibody, human IgG1, V domains shown)
# VH: DVQLQESGPGLVKPSQSLSLTCSVTGYSITSGYYWNWIRQFPGNKLEWMGYISYDGTNNYNPSLKNRISITRDTSENQFFLKLNSVTTEDTATYFCVRGAGYWGQGTTLTVSS
# VL: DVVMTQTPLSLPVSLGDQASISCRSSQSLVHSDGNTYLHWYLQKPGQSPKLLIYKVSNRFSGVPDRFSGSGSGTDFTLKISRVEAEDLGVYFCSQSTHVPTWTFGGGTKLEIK
# B3: MTK-226 (antibody, human IgG1, V domains shown)
# VH: QVQLQQSGPELVKPGASVKISCKASGYSFTSYYIHWVKQRPGQGLEWIGWIFPGNGNTKYNENFRGKATLTADTSSSTAYMQLSSLTSEDSAVYYCARLGLIYALDYWGQGTSVTVSS
# VL: DAVMTQTPLSLPVSLGDQASISCRSSQSLESSNGNTYLHWYLQKPGQSPQLLIYRVSNRFSGVLDRFSGSGSGTDFTLQISRVEAEDLGVYFCLQVTHVPFTFGSGTKLEIK
# B4: MTK-218 (antibody, human IgG1, V domains shown)
# VH: B3 VH with A16T, E46D, G56R, K59Q, N63K, R65K
# VL: B3 VL with S31N, N35H, L64Q, Q79K
# B5: MTK-220 (antibody, V domains shown)
# VH: EVQLVESGGGLVKPGGSLKLSCAASGFTFSDYGMHWVRQAPEKGLEWVAFISGGSGTIYYEDTVKGRFTISRDNAKNTLFLQMTSLRSEDTAMYYCTRGGNYFDYWGQGTTLTVSS
# VL: NIMLTQSPSSLAVSAGEKVTMTCKSSQSVLYSSNQKNYLAWYQQKPGQSPKLLIYWASTRESGVPDRFTGSGSGTDFTLTISNVQAEDLAVYYCHQYFSSWTFGGGTKLEIK
# B6: MTK-202 (antibody, human IgG1, V domains shown)
# VH: EVQLVESGGGLVKPGGSLKLSCAASGFTFSDFGMHWVRQVPEKGLEWVAFISGGSNTIYYTDTVKGRFTISRDNAKNTLFLQMTSLRSEDTAMYYCVRNGNSFAYWGQGTLVTVSA
# VL: B5 VL with L4M, T22N, V84I, V91I, S99F
# B7: MTK-204 (antibody, human IgG1, V domains shown)
# VH: B5 VH with F50Y, G53S, S55T, G56S, T97A, N101L, Y102L
# VL: B5 VL with L4M, T22S, Y55Q, G74E, S82R, N83S
# B8: MTK-225 (antibody, human IgG1, V domains shown)
# VH: EVQLQQSGPELVKPGASVKIFCKASGYTFTAYNMDWVKQSHGKSLEWIGDINPNNGGTIYNQKFKGKATLTVDKSSSTAYMELRSLTSEDTAVYYCARRRRYGNTYYWYFDVWGTGTTVTVSS
# VL: DIQMTQSPASLSVSVGETVTITCRASENIYSSLAWYQQKQGKSPQLLVYAATNLADGVPSRFSGSGSGTQFYLKINGLQSEDFGSYYCQHFWGTSYTFGGGTKLEIK
# B9: MTK-207 (antibody, human IgG1, V domains shown)
# VH: QVQLKESGPGLVAPSQSLSITCTVSGISLTSYGVSWVRQPPGKGLEWLGIIWGDGSTNYHSALISRLSISKDNSKSQVFLKLNSLQTDDTATYYCAKGRYGNYEDWYFDVWGTGTTVTVSS
# VL: DIQMTQSPASLSASVGETVTITCRASGNIHNYLAWYQQKQGKSPQLLVYNAKTLAAGVPSRFSGSGSGTQYSLKINSLQPEDFGSYYCQHFWSIPLTFGAGTKLELK
# B10: MTK-214 (antibody, human IgG1, V domains shown)
# VH: QVQLQQPGAELVKPGASVKVSCKASGYTFTNYWMHWMKQRPGQGLEWIGRIHPFDSDTNYNEKFTDKATLTVDKSSSTAYMQLSSLTSEDSAVYYCAIGTLIYWGQGTTLTASS
# VL: DILLTQSPATLSVTPGETVSLSCRASQSIYKKLHWFQQRSHRSPRLLIKFASDSISGIPSRFTGSGSGTDYTLSINSVKPEDEAIYYCLQGYSTPLTFGAGTKLELK
# B11: MTK-211 (antibody, human IgG1, V domains shown)
# VH: QVQLQQSGAELMKPGASVKLSCKATGYTFTGYWIEWVKQRPGHGLEWIGEILPGSGGSNYNEKFKGKATFTADTSSNTAYIQLSSLTTEDSAIYCCARGEPSYFSDAGFAYWGQGTLVTVSA
# VL: QIVLTQSPAVMSASPGEKVTMTCSASSSITYMHWYQQKPGTSPKRWIYDTSKLASGVPARFSGSGSGTSYFLTISSMEAEDVATYYCHQRSTYPYTFGGGTKLEIM
# B12: MTK-203 (antibody, human IgG1, V domains shown)
# VH: QVQLQQPGAELVKPGASVKVSCKASGYTFTNYWMHWVKQRPGQGLEWIGRIHPFDTETNDNQKFKGKATLTVDKSSSTAYMQLSSLTSEDSAVYYCVIPANGGFAYWGQGTLVTVSA
# VL: ETTVTQSPASLSVATGEKVTIRCITSTDIGDDMNWYQQKPGEPPKVLISEGNSLRPGVPSRFSSSGYGTDFVFTIENTLSEDVADYFCLQSDNLPLTFGSGTKLEIK
# B13: MTK-228 (antibody, human IgG1, V domains shown)
# VH: B3 VH with V2D, I48V, N63R, R65K
# VL: B3 VL with S31N, Q79K
# B14: MTK-227 (antibody, human IgG1, V domains shown)
# VH: EVKLVESGGGLVQPGGSLSLSCAASGFTFTDNYMTWVRQPPGKALEWLGFSRNKANGYTTEYSASVKGRFTISRDSSQSILYLQMNALRAEDSGTYYCARFPPHYYAGGYFDVWGTGTTVTVSS
# VL: DIQMTQSPASLSASVGETVTITCRASENIYSYLAWYQQKQGKSPQLLVYNAKTLAEGVPSRFSGSGSGTQFSLKINSLQPADFGSYYCQHYYRTPPTFGGGTKLEIK
# B15: MTK-230 (antibody, human IgG1, V domains shown)
# VH: EVQLQQSGPELVKPGASVRIPCKASGYTFSDYNMDWVKQSHGKSLEWIGNINPNIGGTIYSQKFKGKATLTVDKSSSTAYMELRSLTSEDTAVYYCARGDYGFASWGQGTLVTVSA
# VL: DIVLTQSPASLTVSLGQRATISCRASRSVSTSGYSYMHWYQQKPGQPPKLLIYLASNLESGVPARFSGSRSGTDFTLNIHPVEEEDAATYYCQHSREYPFTFGSGTKLEIK
# B16: MTK-209 (antibody, human IgG1, V domains shown)
# VH: QVQLQQPGAELVKPGASVKVSCKASGYTFTNYWIHWVKQRPGQGLEWIGRIHPFDSEPNYNQKFKGKATLTVDKSSSTAYMHLTSLTSEDSAVYYCALASFAYWGQGTLVTVSA
# VL: ETTVTQSPASLSMAMGEKATIRCITSTDIDDKMNWYQQKPGKPPKLLISAGNTLRPGVPSRFSSSGYGTDFVLTVENMLSEDVADYYCLQGGALPLTFGSGTKLEIK
# Target: T1, MerTK C-terminal ECD Half-and-half …
# Test: SPR, construct supernatant over immobilised Ab
# Procedure, shortened: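 Read-out is loss of binding to MerTK deletion or Axl-swap constructs, or gain of binding to Axl constructs carrying MerTK domains, mapped to human MerTK domains. Antibodies sat on the chip by amine coupling; diluted supernatants flowed over them.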
row,binding result,Binder
1,no binding,B1
2,no binding,B2
3,no binding,B3
4,no binding,B4
5,no binding,B5
6,no binding,B6
7,no binding,B7
8,no binding,B8

# Target: T2, His tag-conjugated recombinant ProS
# Test: ELISA, captured Ab, ProS-His 10 ug/ml, no MerTK
row,binding result,Binder
1,binds,B9
2,binds,B10
3,binds,B11

# Target: T3, recombinant murine MerTK extracellular …
# Test: SPR Carterra LSA
row,Ratio of KD for Mouse vs Human MerTK [ratio],Binder
1,12.5,B12
2,0.13,B1
3,32,B10
4,0.04,B13
5,0.05,B3
6,0.1,B4
7,0.08,B14
8,3.5,B15
9,35.4,B16
